Results reported in paper PMC7083937, “The ribosome-associated complex RAC serves in a relay that directs nascent chains to Ssb” (Nature Communications, 2020).
Where a chain is given by its changes, count along the chain named. Names may count otherwise. “Also recorded” adds a separate entry of the source.

B1: Ssz1: Hsp70 homolog, RAC subunit (protein)
chain: MSSPVIGITFGNTSSSIAYINPKNDVDVIANPDGERAIPSALSYVGEDEYHGGQALQQLIRNPKNTIINFRDFIGLPFDKCDVSKCANGAPAVEVDGKVGFVISRGEGKEEKLTVDEVVSRHLNRLKLAAEDYIGSAVKEAVLTVPTNFSEEQKTALKASAAKIGLQIVQFINEPSAALLAHAEQFPFEKDVNVVVADFGGIRSDAAVIAVRNGIFTILATAHDLSLGGDNLDTELVEYFASEFQKKYQANPRKNARSLAKLKANSSITKKTLSNATSATISIDSLADGFDYHASINRMRYELVANKVFAQFSSFVDSVIAKAELDPLDIDAVLLTGGVSFTPKLTTNLEYTLPESVEILGPQNKNASNNPNELAASGAALQARLISDYDADELAEALQPVIVNTPHLKKPIGLIGAKGEFHPVLLAETSFPVQKKLTLKQAKGDFLIGVYEGDHHIEEKTLEPIPKEENAEEDDESEWSDDEPEVVREKLYTLGTKLMELGIKNANGVEIIFNINKDGALRVTARDLKTGNAVKGEL
modifications: left off: His6-SUMO, N-terminal, state not stated
notes: Hsp70 homolog, RAC subunit
B2: Ssz1mut: Ssz1 with L439S/K440P/I448F/G495K in the peptide binding groove (protein)
chain: B1 chain with L439S, K440P, I448F, G495K
B3: Zuo1: J-domain protein (Hsp40), RAC subunit (protein)
chain: MFSLPTLTSDITVEVNSSATKTPFVRRPVEPVGKFFLQHAQRTLRNHTWSEFERIEAEKNVKTVDESNVDPDELLFDTELADEDLLTHDARDWKTADLYAAMGLSKLRFRATESQIIKAHRKQVVKYHPDKQSAAGGSLDQDGFFKIIQKAFETLTDSNKRAQYDSCDFVADVPPPKKGTDYDFYEAWGPVFEAEARFSKKTPIPSLGNKDSSKKEVEQFYAFWHRFDSWRTFEFLDEDVPDDSSNRDHKRYIERKNKAARDKKKTADNARLVKLVERAVSEDPRIKMFKEEEKKEKERRKWEREAGARAEAEAKAKAEAEAKAKAESEAKANASAKADKKKAKEAAKAAKKKNKRAIRNSAKEADYFGDADKATTIDEQVGLIVDSLNDEELVSTADKIKANAAGAKEVLKESAKTIVDSGKLPSSLLSYFV

Legend:
ribosomes = assay: ribosome-binding assay; design: species or system Saccharomyces cerevisiae
Protocol: Yeast strains were grown to early log phase on YPD, prior to harvest cycloheximide was added to a final concentration of 100 µg/ml, and subsequently cells were collected via centrifugation at 5000 g. Cell pellets were resuspended in ribosome-binding buffer (20 mM Hepes/KOH pH 7.4, 2 mM Mg(OAc)2, 120 mM KOAc, 100 µg/ml cycloheximide, 2 mM DTT, 1 mM PMSF, protease inhibitor mix) and total cell extracts were prepared by the glass beads method. After a clearing spin at 20.000 g, each 60 µl of the total glass beads extract (A260 between 80 and 100 mAU) was loaded onto a 90 µl sucrose cushion (25% sucrose, 20 mM Hepes/KOH pH 7.4, 120 mM KOAc, 2 mM Mg(OAc)2, 2 mM DTT, 1 mM PMSF, protease inhibitor mix). After centrifugation at 400.000 g at 4 °C for 25 min the cytosolic supernatant was collected and the ribosomal pellet was resuspended in 300 µl ribosome-binding buffer. Aliquots of the total cell extract, cytosolic supernatant, and resuspended ribosomal pellets were precipitated by addition of TCA (trichloroacetic acid) to a final concentration of 5%. TCA pellets were dissolved in SDS-sample buffer and were analyzed on 10% Tris-Tricine gels followed by immunoblotting.

nascent Pgk1-100 = assay: crosslinking to ribosome-bound nascent chain; format: binding, Saccharomyces cerevisiae; conditions: BS3
From the text: (§1) DNA templates for transcription reactions were generated by PCR using pSPUTK-Pgk1[20] as a template. Reverse primers were designed such, that PCR products encoded different length PGK1 sequences, which all lacked a stop codon. The length of the resulting translation products, which remain ribosome-bound, is indicated in Results and Figure Legends. Transcripts were generated using SP6 polymerase (Thermo Fischer Scientific) as previously described. RNCs were generated via translation reactions primed with the stop codon-less transcripts at 20 °C in the presence of [^35S]-methionine (Hartmann-Analytic) for 80 min[20],[54]. Translation reactions were stopped by the addition of 50 µg/ml cycloheximide final concentration and subsequently RNCs were isolated via centrifugation at 400.000 g for 20 min in a TLA-100 or TLA-100.2 rotor (Beckman Coulter)[20].
(§2) Chemical crosslinking of ribosome-bound nascent chains to Ssb, Zuo1, or Ssz1 was analyzed essentially as described. In brief, resuspended RNCs were incubated in the presence of 400 µM BS^3 (bis-(sulfosuccinimidyl)-suberate, spacer length 1.14 nm, Thermo Scientific) for 20 min on ice and crosslinking was then quenched by the addition of TRIS base (tris(hydroxymethyl)aminomethane) to a final concentration of 50 mM. Crosslinked protein samples were precipitated by the addition of TCA (final concentration 5%), pellets were collected by centrifugation and were dissolved in dissociation buffer (200 mM TRIS/HCl pH 7.5, 4% SDS; 10 mM EDTA, 100 µg/ml BSA, protease inhibitor mix, 1 mM PMSF). Totals shown in Figs. 1,3 and Supplementary Fig. 1 before (total) and after BS^3 crosslinking (total + BS^3) represent 5% of the dissolved material employed for immunoprecipitation reactions. The resulting denatured protein samples were used to identify crosslink products between Ssb, Zuo1, or Ssz1 and nascent chains via affinity purification under denaturing conditions. To that end, protein A sepharose beads (GE Healthcare) were pre-coated with antibodies directed against Ssb, Zuo1, or Ssz1 and subsequently the denatured crosslinked material was allowed to bind to the beads resuspended in immunoprecipitation buffer (10 mM TRIS/HCl pH 7.5, 150 mM NaCl, 5 mM EDTA, 1% Triton X-100, protease inhibitor mix, 0.5 mM PMSF)[20]. Crosslink products bound to protein A sepharose beads were released by addition of SDS-sample buffer at 95 °C for 10 min. Samples were analyzed on Tris-Tricine gels[56] followed by autoradiography. Loading was normalized according to the signal of [^35S]-labelled nascent Pgk1 in the total prior to crosslinking. Relative crosslinking efficiencies between nascent Pgk1-100 and Zuo1 or Ssz1, respectively were determined as follows. For each biological replicate, band intensities of non-crosslinked nascent Pgk1-100 and of Pgk1-100 crosslink products (XL-Zuo1 or XL-Ssz1) was determined on a single autoradiograph for wild type RAC and the different mutant variants of RAC. The crosslinking efficiency (XL-Zuo1/Pgk1-100 or XL-Ssz1/Pgk1-100) of each sample was calculated and subsequently the ratio of XL-Zuo1/Pgk1-100 or XL-Ssz1/Pgk1-100 in the presence of wild type RAC was set to 1 in order to normalize the biological replicates (see Fig. 3c,d). The original data are provided as a Source Data file.
For complementation experiments translation reactions were performed in either ∆ssb1∆ssb2 or ∆ssb1∆ssb2∆zuo1∆ssz1 translation extract as indicated. Complementation with purified Ssb1 was performed by adding His6-tagged ScSsb1 at a final concentration of 2 µM to the translation reaction prior to the addition of mRNA. Ribosome-free cytosolic extract of various mutant yeast strains for complementation experiments as indicated in Results and Figure Legends was generated as follows. The A260 of a total cell extract prepared by the glass beads method (see above) was determined, and the total cell extract was subsequently adjusted to a final concentration of 800 mM KOAc. […]

nascent Pgk1-45 = assay: crosslinking to ribosome-bound nascent chain; format: binding, Saccharomyces cerevisiae; conditions: wild type translation extract; BS3
From the text: as §1, §2

nascent Pgk1-40 = assay: crosslinking to ribosome-bound nascent chain; format: binding, Saccharomyces cerevisiae; conditions: wild type translation extract; BS3
From the text: as §1, §2

nascent Pgk1-50 = assay: crosslinking to ribosome-bound nascent chain; format: binding, Saccharomyces cerevisiae; conditions: wild type translation extract; BS3
From the text: as §1, §2

[1] = system: nascent Pgk1 chains of 50–150 residues; assay: crosslinking to ribosome-bound nascent chain; format: binding, Saccharomyces cerevisiae; conditions: Δssb1Δssb2 translation extract (Ssb absent); BS3
From the text: as §1, §2

Molecule | crosslink to nascent Pgk1-45 (nascent Pgk1-45) | crosslink to nascent Pgk1-40 (nascent Pgk1-40) | crosslink to nascent Pgk1-50 (nascent Pgk1-50) | crosslink to nascent chains of 50–150 residues [1] | other results
Ssb-ΔC23 |  |  |  |  | ribosome association (ribosomes; Ssb-ΔC23 translation extract, supernatant/pellet, immunoblot): not ribosome-associated but fully recovered in the supernatant fraction; ribosome binding (ribosomes; total cell extract, supernatant/pellet, immunoblot): fully recovered in the cytosol; crosslink to nascent Pgk1-100 (nascent Pgk1-100; Ssb-ΔC23 translation extract): no crosslink between Ssb-ΔC23 and Pgk1-100 was detected
B1 | most efficiently crosslinked to Pgk1-45 | formed crosslinks with these short nascent chains | below the detection limit | efficient crosslinks | localization of Ssz1 in RAC-∆N49 (ribosomes; total cell extract): localized to the cytosol; localization of Ssz1 in wild type, RAC-∆N8, or RAC-∆N16 (ribosomes; total cell extract): ribosome-bound
B2 |  |  |  |  | contact of nascent Pgk1-100 with Ssz1mut compared to Ssz1 (nascent Pgk1-100; RACmut-ΔN8 (Zuo1-ΔN8/Ssz1mut) vs RAC-ΔN8): impaired; also recorded: strongly reduced
B3 | formed crosslinks with these short nascent chains | most efficiently crosslinked to Pgk1-40 | below the detection limit | efficient crosslinks | crosslinking of Zuo1 to nascent Pgk1 when RAC or Ssz1 is absent from ribosomes (nascent Pgk1-100; Fig. 1e set-up): strongly enhanced; contact of Zuo1 with nascent Pgk1-100 when Ssz1 was absent or not in a stable complex (nascent Pgk1-100; Δzuo1Δssz1Δssb1Δssb2 RNCs complemented with ribosome-free extracts): remained in contact with Zuo1
